# Laboratory results reported in paper doi:10.1101/2025.03.30.646023 (bioRxiv, 2025).
# Target: SARS-CoV-2 (ancestral strain) RBD protein (SARS-CoV-2 ancestral strain, UniProt P0DTC2)
# Experiment: SPR
binder,measurement,value
"PRO-37587 (antibody, V domains shown) VH: QVQLVQSGAEVKKPGSSVKVSCKASGDTSDTYTISWVRQAPGQGLEWMGRIILLSGYANYAQKIQGRVTITADKSTSTAYMELTSLRSDDTAVYYCARGFNGDYYGWGDDDAFDFWGQGTLVTVYS VL: QTVLTQPPSVSGAPGQRVTISCTGSSSNIGAGYRVHWYQQLPGTAPKLLIAGRSNRPSGVPDRFSGSKSGTSASLAITGLQAEDEADYYCQSYDSSLFDPHWVFGGGTKLTVL",binding result,binds
